Assay results reported in paper PMC3268815 (Nature, 2011).
Where a chain is given by its changes, count along the chain named. Numbers in names are those of the source.

How the values were obtained:
[1] = target: T1, fibrinogen fragment D (human, UniProt P02671 130-216; P02675 164-491; P02679 114-432); test: pull-down
T1 sequence 1: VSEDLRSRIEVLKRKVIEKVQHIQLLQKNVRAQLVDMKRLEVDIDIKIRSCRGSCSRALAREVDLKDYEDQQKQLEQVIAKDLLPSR
T1 sequence 2: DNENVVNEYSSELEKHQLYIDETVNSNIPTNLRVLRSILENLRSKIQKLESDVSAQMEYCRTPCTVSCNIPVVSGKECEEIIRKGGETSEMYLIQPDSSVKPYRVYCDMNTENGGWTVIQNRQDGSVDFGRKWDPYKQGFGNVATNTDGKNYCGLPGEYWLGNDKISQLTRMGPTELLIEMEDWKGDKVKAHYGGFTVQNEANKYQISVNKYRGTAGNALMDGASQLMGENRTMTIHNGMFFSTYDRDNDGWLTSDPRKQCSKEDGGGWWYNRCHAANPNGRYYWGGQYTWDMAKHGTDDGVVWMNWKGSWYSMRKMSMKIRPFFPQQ
T1 sequence 3: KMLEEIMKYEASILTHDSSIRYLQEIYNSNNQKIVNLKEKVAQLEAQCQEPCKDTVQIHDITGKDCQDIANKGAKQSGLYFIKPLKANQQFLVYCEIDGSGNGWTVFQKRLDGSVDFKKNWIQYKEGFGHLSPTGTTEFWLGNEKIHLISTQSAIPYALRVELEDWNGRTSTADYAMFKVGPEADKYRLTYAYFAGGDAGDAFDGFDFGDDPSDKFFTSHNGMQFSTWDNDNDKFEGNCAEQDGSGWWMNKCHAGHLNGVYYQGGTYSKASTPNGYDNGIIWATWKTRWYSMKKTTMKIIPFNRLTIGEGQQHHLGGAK

[2] = target: the molecule itself; test: crystal structure
[3] = target: T1, fibrinogen fragment D; test: crystal structure

B1: M1 B2C (residues 162-189 deleted and inserted after C-terminal residue 453) (natural protein, UniProt Q99XV0 42-453, looked up)
chain: NGDGNPREVIEDLAANNPAIQNIRLRYENKDLKARLENAMEVAGRDFKRAEELEKAKQALEDQRKDLETKLKELQQDYDLAKESTSWDRQRLEKELEEKKEALELAIDQASRDYHRATALEKELETITREQEINRNLLGNAKLELDQLSSEKEQLTIEKAKLEEEKQISDASRQSLRRDLDASREAKKQVEKDLANLTAELDKVKEDKQISDASRQGLRRDLDASREAKKQVEKDLANLTAELDKVKEEKQISDASRQGLRRDLDASREAKKQVEKALEEANSKLAALEKLNKELEESKKLTEKEKAELQAKLEAEAKALKEQLAKQAEELAKLRAGKASDSQTPDTKPGNKAVPGKGQAPQAGTKPNQNKAPMKETKRQLPSTEKELEEKKKALELAIDQASQDYNRANVL
- binding result [1]: binds

B2: M1^BC1 (M1 fragment with B-repeats, S-region and first C-repeat) (domain or fragment, UniProt Q99XV0 128-263, looked up)
chain: WDRQRLEKELEEKKEALELAIDQASRDYHRATALEKELEEKKKALELAIDQASQDYNRANVLEKELETITREQEINRNLLGNAKLELDQLSSEKEQLTIEKAKLEEEKQISDASRQSLRRDLDASREAKKQVEKDL
- stoichiometry N [2]: 2

B3: selenomethionine-substituted M1^BC1(I148M) (domain or fragment, UniProt Q99XV0 128-263, looked up)
chain: B2 chain with I21M
modifications: selenomethionine-substituted
- binding result [3]: binds
